Data as given in PMC4092090, “Investigation of a MMP-2 Activity-Dependent Anchoring Probe for Nuclear Imaging of Cancer” (PLoS ONE, 2014).

Tests used:
[1] = Effective dose estimation (OLINDA); settings: estimated from mouse biodistribution data (non-decay-corrected time radioactivity curves) with OLINDA
Description: The effective dose of MDAP3000 was estimated using the area under the non-decay-corrected time radioactivity curves generated from the biodistribution data for each organ with the standard quantitation platform included in Organ Level Internal Dose Assessment software (OLINDA, Vanderbilt University).

[2] = assay type: physicochemical; settings: pH 7.4
Experimental: The experimental determination of probe partition coefficients (log P values) was performed in 1-octanol and 0.02 M phosphate buffer pH 7.4 where the two phases were pre-saturated with each other. 1-Octanol (200 µl) and phosphate buffer (200 µl) were pipetted into LoBind Eppendorf tubes containing 0.37 MBq of probes. The tube was vortexed for 10 seconds, and centrifuged (5 min, 4000×g). Aliquots (50 µl) from the 1-octanol and buffer phases were transferred into two test tubes for radioactivity counting with a NaI well-type scintillation counter (1470 WIZARD, Perkin Elmer, Kanagawa, Japan). The partition coefficient was calculated using the equation P = (counts/µl in 1-octanol)/(counts/µl in buffer).

[3] = tested on: HT1080 tumor xenograft; set-up: species or system mouse (Balb/c nu-nu); settings: mouse, in vivo
Experimental: (§1) […]3000 and […] (37 kBq, 100 μl in PBS including 3% bovine serum albumin and 0.1% Tween 80) were injected intravenously into the tail vein of tumor bearing mice. The mice were sacrificed at various post-injection time points (n = 3 for each time point), and the organs of interest including the tumor tissues were collected for determination of the weights. The radioactivity of each sample was measured with a NaI well-type scintillation counter. From fitting to the two phase decay curves for blood radioactivity data analyzed by GraphPad Prism 6 (GraphPad Software, San Diego, CA), whole body pharmacokinetic parameters such as blood half-lives, distribution volume, mean residence time and total clearance were calculated for each of the probes and the values compared. Simple pharmacokinetic analysis using a single tissue compartment model was applied to the biodistribution data to calculate rate constants (K1 and k2) for radioactivity transfer from blood to tumor and clearance from tumor to blood by PMOD version 3.2. In addition, MDAP3000 (7.4 MBq in 200 μl) was injected intravenously into the tail vein of tumor bearing mice for metabolite analysis in tumors excised 3, 6, and 24 hr post injection (n = 2 each). Tumor homogenates were prepared on ice and insoluble material was removed by centrifugation after methanol treatment. The resulting supernatant was analyzed by RP-HPLC.

[4] = tested on: HT1080 tumor bearing mice; set-up: species or system mouse (Balb/c nu-nu); settings: mouse, in vivo, iv
Experimental: as §1

Row | Substance | Effective dose [1] | log P (partition coefficient) [2] | Slower washout rate from the tumor (k2) compared to MDAPCV [3] | K1, rate constant for transfer from blood to tumor, Mean ([3]; iv) [mL/g/min] | Blood half-life, Fast [4] [×10 min] | Blood half-life, Slow [4] [h] | Clearance (total clearance) [4] [mL/min] | Distribution volume [4] [mL] | Mean residence time [4] [min] | k2, rate constant for clearance from tumor to blood, Mean ([3]; iv) [min⁻¹]
1 | Palmitoyl-Dap(p-SCN-Bn-DTPA-^111In)-10-Adc-Gly-Pro-Leu-Gly-Val-Arg-Gly-Lys(ivDde)-PEG3000 [MDAP3000] | 5.08×10^−2 mSv/MBq | −0.95±0.12 | approximately seven-fold | 0.0013 | 5.6 | 7.17 | 0.0079 | 1.94 | 250 | –
2 | Palmitoyl-Dap(p-SCN-Bn-DTPA-^111In)-10-Adc-Gly-Pro-Leu-Gly-Val-Arg-Gly-Lys(ivDde)-PEG1000 [MDAP1000] | – | −0.56±0.13 | – | 0.00071 | 4.0 | 43.3 | 0.0083 | 1.71 | 210 | 0.0011
